Source: the supplement of paper PMC10567573

B1: FBXO3 (parent)
chain: HDPLWRRHCKKYWLISEEEKTQKN

Variants of: B1
Test: protein stability index of a GFP-peptide fusion (GPS, HEK-293T) (PSI 1-6); higher = more stable
Details: c terminus: a fixed tail appended
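Note: lentivirally expressed fusions sorted by FACS into six bins by GFP to DsRed ratio, PSI derived from sequencing read proportions per bin multiplied by bin number.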

Protein stability index of substitutions, site by site:
E19: V 2.67, G 3.05, N 2.88, P 2.98, W 1.9, C 2.84, R 2.94, M 2.66, I 2.38, H 2.91, D 3.17, Q 3.26, A 2.83, L 2.35, F 2.04, S 3.05, T 2.71, Y 2.54, K 2.92
W13: S 3.97, P 4.21, L 3.84, I 3.91, Y 3.19, C 3.67, F 3.85, Q 4.28, R 3.46, E 4.52, K 4.65, H 4.21, N 4.37, G 4.26, A 4.04, T 4.22, M 3.76, V 3.85, D 4.38
L4: N 3.52, T 4.35, I 2.93, W 3.63, Q 3.88, K 2.95, M 3.26, S 3.87, R 2.33, P 3.73, G 3.75, H 3.45, Y 3.45, F 3.52, E 2.9, V 3.32
W5: P 3.78, H 3.94, S 4.08, F 4.56, N 3.89, L 4.35, E 4.07, G 3.96, Y 4.71, R 3.42, V 3.81, A 4.33, I 3.99, C 3.77, K 3.62, Q 4.25, T 4.76, M 4.39, D 4.18
K11: A 3.6, P 2.67, W 2.41, V 2.28, R 3.35, C 2.63, Q 3.45, F 2.4, D 3.12, H 3.26, Y 2.31, G 2.7, E 3.59, L 1.93, I 2.27, N 2.65, T 2.71, M 2.44, S 2.79
T21: K 2.94, H 2.86, A 2.84, D 3.25, P 3.32, Q 3.21, C 3.39, M 2.63, N 2.95, F 2.64, G 2.91, E 3.31, L 2.76, I 3.29
E17: M 2.22, R 3, K 3.31, F 2.56, P 3.52, Q 2.98, H 3.05, L 2.47, Y 2.62, V 2.23, A 3.41, D 3.48, N 2.98, S 3.26, G 3, T 3.1, I 2.31, W 2.37, C 2.64
K10: D 4.05, S 3.32, R 3.06, G 3.41, Y 2.52, L 2.34, A 2.91, M 2.28, T 2.71, P 4.06, C 2.27, Q 3.28, E 3.81, V 2.57, H 3.27, N 3.51, W 2.95, I 2.02, F 2.77
K20: Y 2.71, N 3.24, L 2.88, F 2.6, R 3.38, A 2.85, I 2.58, P 2.91, S 3.2, W 2.33, T 2.89, Q 3.66, D 3.35, G 3.51, E 3.64, C 2.9, H 2.95, V 3.29, M 3.03
I15: W 3.19, Y 3.21, C 3.73, T 3.61, K 3.47, Q 3.68, R 4.68, V 3.85, H 2.72, E 3.88, M 3.16, L 3.44, A 3.38, G 3.69, S 3.62, P 3.68, N 3.67, D 3.69, F 3.38
E18: D 3.2, V 2.5, G 2.75, T 2.89, N 3.15, R 2.81, Y 2.31, A 2.55, Q 2.94, W 2.38, K 3.04, M 2.28, C 2.95, L 2.46, P 2.91, F 2.55, S 3.01, I 2.46, H 3.3
H8: K 2.89, R 3, N 3.15, I 1.63, T 2.79, V 2.56, C 2.03, L 1.88, S 2.73, G 3.31, A 2.63, E 3.63, Q 3.72, P 3.4, D 4.29, M 2.23, F 1.73, Y 2.2, W 1.88
S16: M 2.99, W 2.52, E 3.8, G 2.95, V 2.73, L 2.72, K 3.21, P 3.77, Y 2.72, C 2.99, F 2.46, A 3.21, Q 2.99, H 3.09, R 3.27, N 3.5, I 2.4, D 3.84, T 3.51
C9: N 4.14, R 3.68, F 2.65, I 3.58, D 4.83, L 2.93, S 3.27, V 3.8, M 2.55, K 3.59, H 3.42, A 3.57, Y 3.31, T 3.7, Q 3.9, P 4.15, W 3.16, E 4.37, G 4.08
Y12: S 3.91, M 2.98, T 4.13, G 3.74, E 4.48, R 3.59, C 3.4, F 3.22, Q 3.61, P 3.78, V 3.83, H 3.72, L 3.74, N 3.58, I 3.48, A 3.44, W 3.12, D 4.63, K 3.89
L14: D 3.98, I 2.99, N 4.4, K 3.53, E 3.77, M 3.27, Q 3.58, Y 3.56, V 3.27, R 3.3, A 3.57, P 4.11, G 3.79, C 3.3, T 3.65, W 3.31, S 3.88, H 3.49, F 3
R7: Q 3.54, S 3.46, E 3.31, M 2.86, A 3.39, H 3.02, V 2.71, D 3.8, F 2.21, Y 2, W 2.68, T 3.53, P 4.42, G 4.02, I 3.14, C 2.95, L 3.14, N 3.46, K 3.22
R6: T 3.43, E 4.24, H 3.51, L 2.89, P 1.82, D 4.04, C 3.35, F 2.84, N 3.85, V 2.98, A 2.99, K 3.32, M 3.58, S 3.69, W 2.46, I 2.58, Q 3.54, Y 2.7, G 3.6
